In patent EP4059949A1 (AFFILOGIC, dated 2022):

Tests used:
[1] = biological target: complement component C3b (obtained after hydrolysis of C3) (UniProt P01024); experiment: biolayer interferometry
[2] = biological target: T1, complement component C3b (obtained after hydrolysis of C3) (UniProt P01024 23-667; P01024 749-1663); experiment: biolayer interferometry (Octet RED96), GFP tagged Nanofitin captured by anti-GFP Nanofitin, C3b in solution, 1:1 fit
[3] = biological target: T1, complement component C3b (obtained …); experiment: biolayer interferometry; B10 made by full chemical synthesis
[4] = biological target: T1, complement component C3b (obtained …); experiment: biolayer interferometry; B10 made recombinantly in E. coli

T1 sequence (P01024 23-667 limits assumed, chain 1 of 2): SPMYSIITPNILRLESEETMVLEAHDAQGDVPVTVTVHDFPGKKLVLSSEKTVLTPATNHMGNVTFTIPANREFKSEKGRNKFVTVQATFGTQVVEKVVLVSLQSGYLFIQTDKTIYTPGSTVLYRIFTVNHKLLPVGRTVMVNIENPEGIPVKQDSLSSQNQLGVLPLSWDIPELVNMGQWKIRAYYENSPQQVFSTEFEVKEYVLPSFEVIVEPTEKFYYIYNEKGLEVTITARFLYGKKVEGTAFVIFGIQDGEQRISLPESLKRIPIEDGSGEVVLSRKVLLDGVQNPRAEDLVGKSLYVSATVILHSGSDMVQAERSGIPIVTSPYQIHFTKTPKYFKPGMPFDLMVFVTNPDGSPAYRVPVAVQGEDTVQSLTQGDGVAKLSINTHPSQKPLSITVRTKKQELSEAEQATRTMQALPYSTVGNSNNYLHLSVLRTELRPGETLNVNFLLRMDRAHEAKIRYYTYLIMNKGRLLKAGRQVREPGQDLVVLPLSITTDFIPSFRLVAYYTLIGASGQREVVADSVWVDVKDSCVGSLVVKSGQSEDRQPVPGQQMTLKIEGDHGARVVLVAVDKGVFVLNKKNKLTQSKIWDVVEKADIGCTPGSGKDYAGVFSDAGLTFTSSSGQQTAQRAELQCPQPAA
T1 sequence (P01024 749-1663 limits assumed, chain 2 of 2): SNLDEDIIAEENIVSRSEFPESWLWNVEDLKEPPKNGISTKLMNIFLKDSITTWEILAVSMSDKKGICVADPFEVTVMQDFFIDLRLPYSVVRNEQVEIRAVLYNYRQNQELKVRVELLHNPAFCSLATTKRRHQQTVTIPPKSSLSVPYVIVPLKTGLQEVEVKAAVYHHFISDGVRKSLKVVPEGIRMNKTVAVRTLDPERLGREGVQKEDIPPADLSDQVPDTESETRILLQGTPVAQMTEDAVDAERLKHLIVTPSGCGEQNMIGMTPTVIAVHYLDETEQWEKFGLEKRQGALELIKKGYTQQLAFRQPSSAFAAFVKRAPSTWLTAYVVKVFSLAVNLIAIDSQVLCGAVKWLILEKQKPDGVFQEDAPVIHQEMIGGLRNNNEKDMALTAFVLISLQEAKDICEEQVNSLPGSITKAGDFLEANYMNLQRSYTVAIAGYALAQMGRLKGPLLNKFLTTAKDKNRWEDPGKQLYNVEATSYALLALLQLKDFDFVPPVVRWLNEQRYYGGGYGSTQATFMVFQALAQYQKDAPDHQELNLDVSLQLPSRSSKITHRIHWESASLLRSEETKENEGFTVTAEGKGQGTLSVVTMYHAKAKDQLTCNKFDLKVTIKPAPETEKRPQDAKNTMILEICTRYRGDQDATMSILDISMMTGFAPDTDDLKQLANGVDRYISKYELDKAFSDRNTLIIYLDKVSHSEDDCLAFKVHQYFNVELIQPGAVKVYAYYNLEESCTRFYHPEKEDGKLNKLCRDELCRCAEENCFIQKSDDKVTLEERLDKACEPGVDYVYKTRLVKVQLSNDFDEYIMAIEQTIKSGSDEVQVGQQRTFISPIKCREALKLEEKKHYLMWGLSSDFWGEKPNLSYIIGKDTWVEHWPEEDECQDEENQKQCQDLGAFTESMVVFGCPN
complement component C3b (obtained after hydrolysis of C3) (UniProt P01024), sequence (P01024 23-667 limits assumed, chain 1 of 2): as the sequence (P01024 23-667 limits assumed, chain 1 of 2) above
complement component C3b (obtained after hydrolysis of C3) (UniProt P01024), sequence (P01024 749-1663 limits assumed, chain 2 of 2): as the sequence (P01024 749-1663 limits assumed, chain 2 of 2) above

| Binder | Kd [1] | Kd [2] | koff [2] | kon [2] | other results |
| --- | --- | --- | --- | --- | --- |
| anti-C3 Nanofitin B10 with N-terminal peptide (10-mers) and C-terminal 30 kDa protein (designed binder, part only; not given: peptide tag and 30 kDa protein, not shown: small tags and cut ends) chain, part: MVKVKFDATGEEKEVDTSKISAVYRTGKDVLFSYDDNGKIGWGYVSEKDAPKELLDLLARAERE | 7.3 nM |  |  |  |  |
| anti-C3 Nanofitin B10 with N-terminal 48 kDa protein (designed binder, part only; not given: 48 kDa fusion protein, part only) chain, part: MVKVKFDATGEEKEVDTSKISAVYRTGKDVLFSYDDNGKIGWGYVSEKDAPKELLDLLARAERE | 6.7 nM |  |  |  |  |
| B10 (SEQ ID NO: 25), GFP tagged Nanofitin (designed binder, Variant of Nf1 from off-rate selection; not shown: GFP tag) MVKVKFDATGEEKEVDTSKISAVYRTGKDVLFSYDDNGKIGWGYVSEKDAPKELLDLLARAERE |  | 7.31 nM | 0.000433 s⁻¹ | 59200 M⁻¹ s⁻¹ |  |
| H03 (SEQ ID NO: 26), GFP tagged Nanofitin (designed binder, Variant of Nf1 from off-rate selection; not shown: GFP tag) MVKVKFAATGEEKEVDTSKIANVYRVGKDVLFSYDDNGKIGWGYVSEKDAPKELLDLLARAERE |  | 2.89 nM | 0.000188 s⁻¹ | 65200 M⁻¹ s⁻¹ |  |
| anti-C3 Nanofitin B10 without N- or C-terminal tag (designed binder, also called Nter tag none, Cter tag none) MVKVKFDATGEEKEVDTSKISAVYRTGKDVLFSYDDNGKIGWGYVSEKDAPKELLDLLARAERE |  |  |  |  | Kd [3]: 18 nM; Kd [4]: 18.5 nM |
